Experimental data from US11649285B2, “Identification of VSIG3/VISTA as a novel immune checkpoint and use thereof for immunotherapy” (BIO-TECHNE CORPORATION, dated 2023).

Target: Recombinant human VISTA Fc Chimera (human (homo sapiens))
Test: functional ELISA: rhVISTA coated at 2 µg/mL, biotin-labeled rhVSIG3, streptavidin-HRP
Method: Following blocking of the wells with 1% BSA, varying amounts of rhVSIG3 labeled with biotin was added. Biotin label associated with the plate due to the rhVSIG3—rhVISTA interaction was detected with streptavidin-HRP.

Recombinant human VISTA Fc Chimera (human (homo sapiens)), sequence (chain, as listed by the source mutant limits assumed): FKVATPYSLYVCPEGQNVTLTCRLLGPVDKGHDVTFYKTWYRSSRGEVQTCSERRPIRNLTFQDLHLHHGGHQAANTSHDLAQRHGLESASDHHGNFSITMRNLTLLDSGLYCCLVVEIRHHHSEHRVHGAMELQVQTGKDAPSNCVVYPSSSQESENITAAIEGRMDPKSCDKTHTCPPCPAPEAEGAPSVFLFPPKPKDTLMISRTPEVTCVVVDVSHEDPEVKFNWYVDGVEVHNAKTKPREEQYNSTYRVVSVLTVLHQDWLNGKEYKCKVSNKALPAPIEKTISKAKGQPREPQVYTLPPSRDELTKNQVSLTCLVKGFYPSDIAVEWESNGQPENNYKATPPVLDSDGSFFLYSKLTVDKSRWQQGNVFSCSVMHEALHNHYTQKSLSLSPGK

EC50: ~0.25 µg/mL
B1: Recombinant human VSIG3 Fc Chimera (Fc fusion)
chain: LEVSESPGSIQVARGQTAVLPCTFTTSAALINLNVIWMVTPLSNANQPEQVILYQGGQMFDGAPRFHGRVGFTGTMPATNVSIFINNTQLSDTGTYQCLVNNLPDIGGRNIGVTGLTVLVPPSAPHCQIQGSQDIGSDVILLCSSEEGIPRPTYLWEKLDNTLKLPPTATQDQVQGTVTIRNISALSSGLYQCVASNAIGTSTCLLDLQVISPQPRNIGLIAG
